From the supplement of paper PMC11246515
± gives the standard deviation of the averaged measurements.

Assay: total protein half-life in vivo (active degradation + dilution); higher = more stable protein
[1] = E. coli NCM3722 delta-clpP delta-lon delta-hslV, growth: N-lim chemostat, doubling time 6 h
[2] = E. coli NCM3722 delta-clpP, growth: N-lim chemostat, doubling time 6 h
[3] = E. coli NCM3722 delta-lon, growth: N-lim chemostat, doubling time 6 h
[4] = E. coli NCM3722 delta-smpB, growth: N-lim chemostat, doubling time 6 h
[5] = wild type E. coli NCM3722, growth: C-lim chemostat, doubling time 3 h
[6] = wild type E. coli NCM3722, growth: C-lim chemostat, doubling time 6 h
[7] = wild type E. coli NCM3722, growth: C-lim chemostat, doubling time 12 h
[8] = wild type E. coli NCM3722, growth: N-lim chemostat, doubling time 6 h
[9] = wild type E. coli NCM3722, growth: N-lim chemostat, doubling time 12 h
[10] = wild type E. coli NCM3722, growth: P-lim chemostat, doubling time 6 h
[11] = E. coli NCM3722 delta-hslV, growth: N-lim chemostat, doubling time 6 h
[12] = wild type E. coli NCM3722, growth: P-lim chemostat, doubling time 12 h

Sequence	total protein half-life in vivo [1] [h]	total protein half-life in vivo [2] [h]	total protein half-life in vivo [3] [h]	total protein half-life in vivo [4] [h]	total protein half-life in vivo [5] [h]	total protein half-life in vivo [6] [h]	total protein half-life in vivo [7] [h]	total protein half-life in vivo [8] [h]	total protein half-life in vivo [9] [h]	total protein half-life in vivo [10] [h]	total protein half-life in vivo [11] [h]	total protein half-life in vivo [12] [h]
MKVSVPGMPVTLLNMSKNDIYKMVSGDKMDVKMNIFQRLWETLRHLFWSDKQTEAYKLLFNFVNNQTGNINASEYFTGAINENEREKFINSLELFNKLKTCAKNPDELVAKGNMRWVAQTFGDIELSVTFFIEKNKICTQTLQLHKGQGNLGVDLRKAYLPGVDMRDCYLGKKTMKGSNDILYERPGWNANLGVLPRTVLPRTVLTRTVLTWTVLP	4.07											
MKWDWIFFDADETLFTFDSFTGLQRMFLDYSVTFTAEDFQDYQAVNKPLWVDYQNGAITSLQLQHGRFESWAERLNVEPGKLNEAFINAMAEICTPLPGAVSLLNAIRGNAKIGIITNGFSALQQVRLERTGLRDYFDLLVISEEVGVAKPNKKIFDYALEQAGNPDRSRVLMVGDTAESDILGGINAGLATCWLNAHHREQPEGIAPTWTVSSLHELEQLLCKH [P0A8Y1]	5.28 ± 0.098	0.513	0.534	0.471 ± 0.024	0.631 ± 0.016	0.671	2.97	1.11	1.51	0.949 ± 0.33		
MKWLCSVGIAVSLALQPALADDLFGNHPLTPEARDAFVTELLKKMTVDEKIGQLRLISVGPDNPKEAIREMIKDGQVGAIFNTVTRQDIRAMQDQVMELSRLKIPLFFAYDVLHGQRTVFPISLGLASSFNLDAVKTVGRVSAYEAADDGLNMTWAPMVDVSRDPRWGRASEGFGEDTYLTSTMGKTMVEAMQGKSPADRYSVMTSVKHFAAYGAVEGGKEYNTVDMSPQRLFNDYMPPYKAGLDAGSGAVMVALNSLNGTPATSDSWLLKDVLRDQWGFKGITVSDHGAIKELIKHGTAADPEDAVRVALKSGINMSMSDEYYSKYLPGLIKSGKVTMAELDDAARHVLNVKYDMGLFNDPYSHLGPKESDPVDTNAESRLHRKEAREVARESLVLLKNRLETLPLKKSATIAVVGPLADSKRDVMGSWSAAGVADQSVTVLTGIKNAVGENGKVLYAKGANVTSDKGIIDFLNQYEEAVKVDPRSPQEMIDEAVQTAKQSDVVVAVVGEAQGMAHEASSRTDITIPQSQRDLIAALKATGKPLVLVLMNGRPLALVKEDQQADAILETWFAGTEGGNAIADVLFGDYNPSGKLPMSFPRSVGQIPVYYSHLNTGRPYNADKPNKYTSRYFDEANGALYPFGYGLSYTTFTVSDVKLSAPTMKRDGKVTASVQVTNTGKREGATVVQMYLQDVTASMSRPVKQLKGFEKITLKPGETQTVSFPIDIEALKFWNQQMKYDAEPGKFNVFIGTDSARVKKGEFELL	6.82 ± 0.31	6.82 ± 0.92	6.84 ± 0.088	5.91 ± 0.13	3.14 ± 0.092	6.17 ± 0.12	14.2 ± 1.2	6.21 ± 0.43	13.9 ± 0.67	6.21 ± 0.027	6.51 ± 0.073	14.5 ± 1.1
MKYKLLPCLLAIFLTGCDRTEVTLSFTPEMASFSNEFDFDPLRGPVKDFTQTLMDEQGEVTKRVSGTLSEEGCFDSLELLDLENNTVVALVLDANYYRDAETLEKRVRLQGKCQLAELPSAGVSWETDDNGFVIKASSKQMQMEYRYDDQGYPLGKTTKSNDKTLSVSATPSTDPIKKLDYTAVTLLNNQRVGNVKQSCEYDSHANPVDCQLIIVDEGVKPAVERVYTIKNTIDYY	2.15 ± 0.28	2 ± 0.022	1.87	1.81 ± 0.19	1.64 ± 0.1	2.38 ± 0.077	2.85 ± 0.52	2.24 ± 0.56	2.51 ± 0.27	2.13 ± 0.32	2.16 ± 0.13	3.98 ± 0.97
MKYQQLENLESGWKWKYLVKKHREGELITRYIEASAAQEAVDVLLSLENEPVLVNGWIDKHMNPELVNRMKQTIRARRKRHFNAEHQHTRKKSIDLEFIVWQRLAGLAQRRGKTLSETIVQLIEDAENKEKYANKMSSLKQDLQALLGKE [P0A8N0]		5.544 ± 0.014	5.46 ± 0.53	4.27 ± 1.1	3.13 ± 0.038	5.74 ± 0.2	10.9 ± 5.6	3.21 ± 1.6	10.7 ± 5.8		4.69 ± 0.85	9.592 ± 0.066
MLAFLNQVRKPTLDLPLEVRRKMWFKPFMQSYLVVFIGYLTMYLIRKNFNIAQNDMISTYGLSMTQLGMIGLGFSITYGVGKTLVSYYADGKNTKQFLPFMLILSAICMLGFSASMGSGSVSLFLMIAFYALSGFFQSTGGSCSYSTITKWTPRRKRGTFLGFWNISHNLGGAGAAGVALFGANYLFDGHVIGMFIFPSIIALIVGFIGLRYGSDSPESYGLGKAEELFGEEISEEDKETESTDMTKWQIFVEYVLKNKVIWLLCFANIFLYVVRIGIDQWSTVYAFQELKLSKAVAIQGFTLFEAGALVGTLLWGWLSDLANGRRGLVACIALALIIATLGVYQHASNEYIYLASLFALGFLVFGPQLLIGVAAVGFVPKKAIGAADGIKGTFAYLIGDSFAKLGLGMIADGTPVFGLTGWAGTFAALDIAAIGCICLMAIVAVMEERKIRREKKIQQLTVA [P0AGC0]					1.74 ± 0.042	1.96 ± 0.031	3.78 ± 2.4					
MLDAQTIATVKATIPLLVETGPKLTAHFYDRMFTHNPELKEIFNMSNQRNGDQREALFNAIAAYASNIENLPALLPAVEKIAQKHTSFQIKPEQYNIVGEHLLATLDEMFSPGQEVLDAWGKAYGVLANVFINREAEIYNENASKAGGWEGTRDFRIVAKTPRSALITSFELEPVDGGAVAEYRPGQYLGVWLKPEGFPHQEIRQYSLTRKPDGKGYRIAVKREEGGQVSNWLHNHANVGDVVKLVAPAGDFFMAVADDTPVTLISAGVGQTPMLAMLDTLAKAGHTAQVNWFHAAENGDVHAFADEVKELGQSLPRFTAHTWYRQPSEADRAKGQFDSEGLMDLSKLEGAFSDPTMQFYLCGPVGFMQFTAKQLVDLGVKQENIHYECFGPHKVL	2.41 ± 0.082	1.52 ± 0.25	1.85 ± 0.057	1.75 ± 0.062	2.76 ± 0.13	3.62 ± 0.29	5.61 ± 0.94	1.79 ± 0.19	2.36 ± 0.053	4.51 ± 0.079	1.56 ± 0.032	7.88 ± 1.2
MLDEKSSNTASVVVLCTAPDEATAQDLAAKVLAEKLAACATLIPGATSLYYWEGKLEQEYEVQMILKTTVSHQQALLECLKSHHPYQTPELLVLPVTHGDTDYLSWLNASLR	4.37	4.22 ± 1.7		3.26 ± 0.26			7.25	3.34 ± 0.39	4.91 ± 0.15	5.13 ± 0.32	3.56	
